Laboratory results: patent US20250258173A1 (FUJIREBIO, published 2025)
Where two headings read alike, the source gives them in different places.

Experiments:
[1] = molecular target: T1, recombinant N protein of SARS-CoV-2 (whole length, 419 amino acids) (SARS-CoV-2, UniProt P0DTC9 1-419)
T1 construct: also called SARS-CoV-2 N protein; SARS-CoV-2 nucleocapsid protein

[2] = molecular target: T1, recombinant N protein of SARS-CoV-2 …; remark: listed apart in the source
[3] = molecular target: T1, recombinant N protein of SARS-CoV-2 …; remark: listed apart in the source
[4] = molecular target: T1, recombinant N protein of SARS-CoV-2 …; remark: listed apart in the source

B1: anti-N protein antibody C12 (antibody, V domains shown)
VH: EVQLQESGGGLVRPGGSLKLSCAASGFTFSDYYMYWVRQTPEKRLEWVATISDGGRYSYYPDSVKGRFTVSRDNAKNNLYLQMSSLKSEDTAMYYCVRDRYDGWGSDFDVWGAGTTVTVS
VL: DVQITQSPSSMYASLGERVTITCKASQDIKSYLSWYQQKPWKSPKTLIYYATSLADGVPSRFSGSGSGQDYSLTISSLESDDTATYYCLQHGESPWTFGGGTKLEIKR
luminescence amount ratio (10 ng/mL/0 ng/mL) [1]: 847
luminescence amount ratio (10 ng/mL/0 ng/mL) [2]: 22.8
luminescence amount ratio (10 ng/mL/0 ng/mL) [3]: 52.8
luminescence amount ratio (10 ng/mL/0 ng/mL) [4]: 1.3
